Patent publication US20200207854A1 (SYNTIMMUNE, published 2020)
One block for each molecule: values may come before it.

Columns and labels:
[1] = target: monomeric His-tagged human FcRn (JTA), produced in-house (human) (UniProt P55899); assay: SPR, IgG amine-coupled, monomeric His-hFcRn injected, 1:1 Langmuir, pH 6.0
[2] = target: monomeric His-tagged human FcRn (JTA), produced in-house (human) (UniProt P55899); assay: SPR, IgG amine-coupled, monomeric His-hFcRn injected, pH 6.0; second value (steady-state affinity model by the footnote)
[3] = target: monomeric His-tagged human FcRn (JTA), produced in-house (human) (UniProt P55899); assay: SPR, IgG amine-coupled, monomeric His-hFcRn injected, pH 6.0; first of two values in the cell
[4] = target: T1, recombinant human FcRn (Sino Biological Inc. Cat. No. CT009-H08H) (human, UniProt P55899 24-297; P61769 21-119); assay: competition ELISA vs biotinylated human serum IgG, captured FcRn, pH 6.0
T1 construct: Bought protein; also called immobilized FcRn; hFcRn (SINO)
Protocol: The following day, 0.5 μg/ml recombinant human FcRn (Sino Biological Inc. cat. no. CT009-H08H) diluted in PBS pH 7.4 was added to the wells and incubated for one hour at 37° C. After washing the plates 3× with PBST pH 7.4, the plates were blocked with PBSM pH 7.4 for one hour at 37° C. From this point onwards, all wash and incubation steps were performed at assay pH 6.0.

[5] = target: T1, recombinant human FcRn (Sino Biological …); assay: competition ELISA vs biotinylated parent murine antibody, captured FcRn, pH 6.0
Protocol: (§1) The following day, 1 μg/ml recombinant human FcRn (Sino Biological Inc. cat. no. CT009-H08H) diluted in PBS pH 7.4 was added to the wells and incubated for 1 hour at 37° C. After washing the plates 3× with PBST pH 7.4, the plates were blocked with PBSM pH 7.4 for 1 hour at 37° C. From this point onwards, all wash and incubation steps were performed at the chosen assay pH (pH 6.0 or 7.4).
(§2) Additional combinations of humanized affinity matured heavy chains and humanized affinity matured light chains were tested in the competition ELISA. Combinations of humanized affinity matured heavy chains and humanized non-affinity matured light chains also were tested.

[6] = target: T1, recombinant human FcRn (Sino Biological …); assay: competition ELISA vs biotinylated parent murine antibody, captured FcRn, pH 7.4
Protocol: as §1, §2

- koff [1]: 0.0824 s⁻¹
- kon [1]: 108000 M⁻¹ s⁻¹
- Kd [2]: 1250 nM
- Kd [3]: 763 nM
Molecule: human IgG1 (antibody)

- Kd [2]: 970 nM
- Kd [3]: 1010 nM
Molecule: human IgG4 (antibody)

- average relative IC50 [4]: 0.53 relative to parent murine antibody
- average relative IC50 [5]: 0.87 relative to chimeric parent murine antibody
- average relative IC50 [6]: 0.89 relative to chimeric parent murine antibody
B1: VH1_A8/Vκ1 IgG4 (antibody, V domains shown)
VH: QVQLVQSGAELKKPGASVKLSCKASGYTFTSYGISWVKQATGQGLEWIGEIYPRSGNTYYNEKFKGRATLTADKSTSTAYMELRSLKSEDSAVYFCARSTTVSPPAHWGTGTTVTVSS
VL: DIQMTQSPSYLSASVGDRVTITCKASDHINNWLAWYQQKPGQAPRLLISGATSLETGVPSRFSGSGTGKDYTLTISSLQTEDFATYYCQQYWSTPYTFGGGTKVEIK
notes: Human IgG4, kappa
